According to patent publication US20110118131A1 (published 2011):

Target: T1, IL-1beta (UniProt P01584 117-269)
T1 construct: also called IL-1β
Assay: Biacore

Row | Binder | binding result | fold difference in affinity vs parental
1 | XPA23 Fab, heavy chain N104E (Fab, V domains shown) VH: EVQLLESGGGLVQPGGSLRLSCAASGFTFSKYFMFWVRQAPGKGLEWVSVISPSGGMTRYADSVKGRFTISRDNSKNTLYLQMNSLRAEDTAVYYCARVGYGGESDYWGQGTLVTVSS VL: DIQMTQSPSSVSASVGDRLTIICRASQDINRWLAWYQQTPGNAPKLLIHSATSLQSGVPSRFSGSGSGTDFTLTINSLQPEDFATYYCQQADSFPLTFGGGTKVEIK | no binding | –
2 | XPA23 Fab, heavy chain N104F (Fab, V domains shown) VH: EVQLLESGGGLVQPGGSLRLSCAASGFTFSKYFMFWVRQAPGKGLEWVSVISPSGGMTRYADSVKGRFTISRDNSKNTLYLQMNSLRAEDTAVYYCARVGYGGFSDYWGQGTLVTVSS VL: DIQMTQSPSSVSASVGDRLTIICRASQDINRWLAWYQQTPGNAPKLLIHSATSLQSGVPSRFSGSGSGTDFTLTINSLQPEDFATYYCQQADSFPLTFGGGTKVEIK | no binding | –
3 | XPA23 Fab, heavy chain N104H (Fab, V domains shown) VH: EVQLLESGGGLVQPGGSLRLSCAASGFTFSKYFMFWVRQAPGKGLEWVSVISPSGGMTRYADSVKGRFTISRDNSKNTLYLQMNSLRAEDTAVYYCARVGYGGHSDYWGQGTLVTVSS VL: DIQMTQSPSSVSASVGDRLTIICRASQDINRWLAWYQQTPGNAPKLLIHSATSLQSGVPSRFSGSGSGTDFTLTINSLQPEDFATYYCQQADSFPLTFGGGTKVEIK | – | 0.07 fold
4 | XPA23 Fab, heavy chain N104K (Fab, V domains shown) VH: EVQLLESGGGLVQPGGSLRLSCAASGFTFSKYFMFWVRQAPGKGLEWVSVISPSGGMTRYADSVKGRFTISRDNSKNTLYLQMNSLRAEDTAVYYCARVGYGGKSDYWGQGTLVTVSS VL: DIQMTQSPSSVSASVGDRLTIICRASQDINRWLAWYQQTPGNAPKLLIHSATSLQSGVPSRFSGSGSGTDFTLTINSLQPEDFATYYCQQADSFPLTFGGGTKVEIK | no binding | –
5 | XPA23 Fab, heavy chain N104Q (Fab, V domains shown) VH: EVQLLESGGGLVQPGGSLRLSCAASGFTFSKYFMFWVRQAPGKGLEWVSVISPSGGMTRYADSVKGRFTISRDNSKNTLYLQMNSLRAEDTAVYYCARVGYGGQSDYWGQGTLVTVSS VL: DIQMTQSPSSVSASVGDRLTIICRASQDINRWLAWYQQTPGNAPKLLIHSATSLQSGVPSRFSGSGSGTDFTLTINSLQPEDFATYYCQQADSFPLTFGGGTKVEIK | – | 0.03 fold
6 | XPA23 Fab, heavy chain N104R (Fab, V domains shown) VH: EVQLLESGGGLVQPGGSLRLSCAASGFTFSKYFMFWVRQAPGKGLEWVSVISPSGGMTRYADSVKGRFTISRDNSKNTLYLQMNSLRAEDTAVYYCARVGYGGRSDYWGQGTLVTVSS VL: DIQMTQSPSSVSASVGDRLTIICRASQDINRWLAWYQQTPGNAPKLLIHSATSLQSGVPSRFSGSGSGTDFTLTINSLQPEDFATYYCQQADSFPLTFGGGTKVEIK | no binding | –
7 | XPA23 Fab, heavy chain N104S (Fab, V domains shown) VH: EVQLLESGGGLVQPGGSLRLSCAASGFTFSKYFMFWVRQAPGKGLEWVSVISPSGGMTRYADSVKGRFTISRDNSKNTLYLQMNSLRAEDTAVYYCARVGYGGSSDYWGQGTLVTVSS VL: DIQMTQSPSSVSASVGDRLTIICRASQDINRWLAWYQQTPGNAPKLLIHSATSLQSGVPSRFSGSGSGTDFTLTINSLQPEDFATYYCQQADSFPLTFGGGTKVEIK | – | 1.02 fold
8 | XPA23 Fab, heavy chain N104W (Fab, V domains shown) VH: EVQLLESGGGLVQPGGSLRLSCAASGFTFSKYFMFWVRQAPGKGLEWVSVISPSGGMTRYADSVKGRFTISRDNSKNTLYLQMNSLRAEDTAVYYCARVGYGGWSDYWGQGTLVTVSS VL: DIQMTQSPSSVSASVGDRLTIICRASQDINRWLAWYQQTPGNAPKLLIHSATSLQSGVPSRFSGSGSGTDFTLTINSLQPEDFATYYCQQADSFPLTFGGGTKVEIK | no binding | –
9 | XPA23 Fab, heavy chain N104Y (Fab, V domains shown) VH: EVQLLESGGGLVQPGGSLRLSCAASGFTFSKYFMFWVRQAPGKGLEWVSVISPSGGMTRYADSVKGRFTISRDNSKNTLYLQMNSLRAEDTAVYYCARVGYGGYSDYWGQGTLVTVSS VL: DIQMTQSPSSVSASVGDRLTIICRASQDINRWLAWYQQTPGNAPKLLIHSATSLQSGVPSRFSGSGSGTDFTLTINSLQPEDFATYYCQQADSFPLTFGGGTKVEIK | no binding | –
10 | XPA23 Fab, heavy chain P53D (Fab, V domains shown) VH: EVQLLESGGGLVQPGGSLRLSCAASGFTFSKYFMFWVRQAPGKGLEWVSVISDSGGMTRYADSVKGRFTISRDNSKNTLYLQMNSLRAEDTAVYYCARVGYGGNSDYWGQGTLVTVSS VL: DIQMTQSPSSVSASVGDRLTIICRASQDINRWLAWYQQTPGNAPKLLIHSATSLQSGVPSRFSGSGSGTDFTLTINSLQPEDFATYYCQQADSFPLTFGGGTKVEIK | no binding | –
11 | XPA23 Fab, heavy chain P53E (Fab, V domains shown) VH: EVQLLESGGGLVQPGGSLRLSCAASGFTFSKYFMFWVRQAPGKGLEWVSVISESGGMTRYADSVKGRFTISRDNSKNTLYLQMNSLRAEDTAVYYCARVGYGGNSDYWGQGTLVTVSS VL: DIQMTQSPSSVSASVGDRLTIICRASQDINRWLAWYQQTPGNAPKLLIHSATSLQSGVPSRFSGSGSGTDFTLTINSLQPEDFATYYCQQADSFPLTFGGGTKVEIK | – | 0.03 fold
12 | XPA23 Fab, heavy chain P53F (Fab, V domains shown) VH: EVQLLESGGGLVQPGGSLRLSCAASGFTFSKYFMFWVRQAPGKGLEWVSVISFSGGMTRYADSVKGRFTISRDNSKNTLYLQMNSLRAEDTAVYYCARVGYGGNSDYWGQGTLVTVSS VL: DIQMTQSPSSVSASVGDRLTIICRASQDINRWLAWYQQTPGNAPKLLIHSATSLQSGVPSRFSGSGSGTDFTLTINSLQPEDFATYYCQQADSFPLTFGGGTKVEIK | – | 0.05 fold
13 | XPA23 Fab, heavy chain P53H (Fab, V domains shown) VH: EVQLLESGGGLVQPGGSLRLSCAASGFTFSKYFMFWVRQAPGKGLEWVSVISHSGGMTRYADSVKGRFTISRDNSKNTLYLQMNSLRAEDTAVYYCARVGYGGNSDYWGQGTLVTVSS VL: DIQMTQSPSSVSASVGDRLTIICRASQDINRWLAWYQQTPGNAPKLLIHSATSLQSGVPSRFSGSGSGTDFTLTINSLQPEDFATYYCQQADSFPLTFGGGTKVEIK | no binding | –
14 | XPA23 Fab, heavy chain P53K (Fab, V domains shown) VH: EVQLLESGGGLVQPGGSLRLSCAASGFTFSKYFMFWVRQAPGKGLEWVSVISKSGGMTRYADSVKGRFTISRDNSKNTLYLQMNSLRAEDTAVYYCARVGYGGNSDYWGQGTLVTVSS VL: DIQMTQSPSSVSASVGDRLTIICRASQDINRWLAWYQQTPGNAPKLLIHSATSLQSGVPSRFSGSGSGTDFTLTINSLQPEDFATYYCQQADSFPLTFGGGTKVEIK | – | 0.04 fold
15 | XPA23 Fab, heavy chain P53N (Fab, V domains shown) VH: EVQLLESGGGLVQPGGSLRLSCAASGFTFSKYFMFWVRQAPGKGLEWVSVISNSGGMTRYADSVKGRFTISRDNSKNTLYLQMNSLRAEDTAVYYCARVGYGGNSDYWGQGTLVTVSS VL: DIQMTQSPSSVSASVGDRLTIICRASQDINRWLAWYQQTPGNAPKLLIHSATSLQSGVPSRFSGSGSGTDFTLTINSLQPEDFATYYCQQADSFPLTFGGGTKVEIK | – | 0.06 fold
16 | XPA23 Fab, heavy chain P53Q (Fab, V domains shown) VH: EVQLLESGGGLVQPGGSLRLSCAASGFTFSKYFMFWVRQAPGKGLEWVSVISQSGGMTRYADSVKGRFTISRDNSKNTLYLQMNSLRAEDTAVYYCARVGYGGNSDYWGQGTLVTVSS VL: DIQMTQSPSSVSASVGDRLTIICRASQDINRWLAWYQQTPGNAPKLLIHSATSLQSGVPSRFSGSGSGTDFTLTINSLQPEDFATYYCQQADSFPLTFGGGTKVEIK | – | 0.03 fold
17 | XPA23 Fab, heavy chain P53S (Fab, V domains shown) VH: EVQLLESGGGLVQPGGSLRLSCAASGFTFSKYFMFWVRQAPGKGLEWVSVISSSGGMTRYADSVKGRFTISRDNSKNTLYLQMNSLRAEDTAVYYCARVGYGGNSDYWGQGTLVTVSS VL: DIQMTQSPSSVSASVGDRLTIICRASQDINRWLAWYQQTPGNAPKLLIHSATSLQSGVPSRFSGSGSGTDFTLTINSLQPEDFATYYCQQADSFPLTFGGGTKVEIK | – | 0.03 fold
18 | XPA23 Fab, heavy chain P53W (Fab, V domains shown) VH: EVQLLESGGGLVQPGGSLRLSCAASGFTFSKYFMFWVRQAPGKGLEWVSVISWSGGMTRYADSVKGRFTISRDNSKNTLYLQMNSLRAEDTAVYYCARVGYGGNSDYWGQGTLVTVSS VL: DIQMTQSPSSVSASVGDRLTIICRASQDINRWLAWYQQTPGNAPKLLIHSATSLQSGVPSRFSGSGSGTDFTLTINSLQPEDFATYYCQQADSFPLTFGGGTKVEIK | – | 0.05 fold
19 | XPA23 Fab, heavy chain P53Y (Fab, V domains shown) VH: EVQLLESGGGLVQPGGSLRLSCAASGFTFSKYFMFWVRQAPGKGLEWVSVISYSGGMTRYADSVKGRFTISRDNSKNTLYLQMNSLRAEDTAVYYCARVGYGGNSDYWGQGTLVTVSS VL: DIQMTQSPSSVSASVGDRLTIICRASQDINRWLAWYQQTPGNAPKLLIHSATSLQSGVPSRFSGSGSGTDFTLTINSLQPEDFATYYCQQADSFPLTFGGGTKVEIK | – | 0.03 fold
20 | XPA23 Fab, heavy chain R59D (Fab, V domains shown) VH: EVQLLESGGGLVQPGGSLRLSCAASGFTFSKYFMFWVRQAPGKGLEWVSVISPSGGMTDYADSVKGRFTISRDNSKNTLYLQMNSLRAEDTAVYYCARVGYGGNSDYWGQGTLVTVSS VL: DIQMTQSPSSVSASVGDRLTIICRASQDINRWLAWYQQTPGNAPKLLIHSATSLQSGVPSRFSGSGSGTDFTLTINSLQPEDFATYYCQQADSFPLTFGGGTKVEIK | no binding | –
21 | XPA23 Fab, heavy chain R59E (Fab, V domains shown) VH: EVQLLESGGGLVQPGGSLRLSCAASGFTFSKYFMFWVRQAPGKGLEWVSVISPSGGMTEYADSVKGRFTISRDNSKNTLYLQMNSLRAEDTAVYYCARVGYGGNSDYWGQGTLVTVSS VL: DIQMTQSPSSVSASVGDRLTIICRASQDINRWLAWYQQTPGNAPKLLIHSATSLQSGVPSRFSGSGSGTDFTLTINSLQPEDFATYYCQQADSFPLTFGGGTKVEIK | no binding | –
22 | XPA23 Fab, heavy chain R59F (Fab, V domains shown) VH: EVQLLESGGGLVQPGGSLRLSCAASGFTFSKYFMFWVRQAPGKGLEWVSVISPSGGMTFYADSVKGRFTISRDNSKNTLYLQMNSLRAEDTAVYYCARVGYGGNSDYWGQGTLVTVSS VL: DIQMTQSPSSVSASVGDRLTIICRASQDINRWLAWYQQTPGNAPKLLIHSATSLQSGVPSRFSGSGSGTDFTLTINSLQPEDFATYYCQQADSFPLTFGGGTKVEIK | – | 0.92 fold
